These results are taken from article PMC3920545 (Journal of molecular biology, 2012).

The experiment has as its target human Toll-like receptor 3 ectodomain (TLR3ecd) (Homo sapiens, UniProt O15455). The experiment in a line: SPR.

B1: Fab1068 (Fab, V domains shown)
VH: QVQLQQPGAELVQPGTSVRLSCKASGYIFTTYWIHWVKQRPGQGLEWIGEINPNNGRINYNEKFKTKATLTVDKSSSTAYMQLSSLTSEDSAVYYCTRVGVMITTFPYWGQGTLVTVSA
VL: DIQMTQSPASLSASVGETVTITCRASGNIHNYLAWYQQKQGKSPQLLVYNAKTLADGVPSRFSGSESGTQYSLKINSLQPEDFGSYYCQHFWSTPFTFGSGTKLELK
In general, Kd refers to a measure of binding affinity in units of concentration. Low readings indicate higher affinity, high ones lower affinity. For orientation: koff means the first-order rate constant of dissociation. Broadly, the kon is the second-order rate constant of association. Read a low kon as slow association. In turn, B1 displayed a Kd of 0.0291 nM, a koff of 0.000103 s⁻¹ and a kon of 3.54e+06 M⁻¹ s⁻¹.
